The values that follow come from patent publication US20230002480A1.

Bounds are passed on as bounds.

Holding throughout (experiment): cell-based or functional assay
For assay [1], the target named is HIV-1 Env of pseudovirus P0402_c2_11 (clade G) (HIV-1).
For assay [2], the target named is HIV-1 Env of pseudovirus X1254_c3 (clade G) (HIV-1).
For assay [3], the target named is HIV-1 Env of pseudovirus C4118.c09 (clade CRF01_AE) (HIV-1).
Assay [4] deals with HIV-1 Env of pseudovirus C1080.c03 (clade CRF01_AE) (HIV-1).
The target of assay [5] is HIV-1 Env of pseudovirus R3265.c06 (clade CRF01_AE) (HIV-1).
The target in assay [6] is HIV-1 Env pseudovirus 620345.c01 (HIV-1).
Assay [7] deals with HIV-1 Env pseudovirus C4118.c09 (HIV-1).
Assay [8] concerns the target HIV-1 Env pseudovirus 3365.v2.c2 (HIV-1).
The target in assay [9] is HIV-1 Env pseudovirus 211-9 (HIV-1).
Assay [10] concerns the target HIV-1 Env pseudovirus BJOX028000.10.3 (HIV-1).
In assay [11] the target is HIV-1 Env pseudovirus X1193_c1 (HIV-1).
The target of assay [12] is HIV-1 Env pseudovirus 3016.v5.c45 (HIV-1).
Assay [13] deals with HIV-1 Env pseudovirus BJOX025000.01.1 (HIV-1).
The target of assay [14] is HIV-1 Env pseudovirus 89-F1_2_25 (HIV-1).
Assay [15] addresses HIV-1 Env pseudovirus 231966.c02 (HIV-1).
The target of assay [16] is HIV-1 Env pseudovirus 0815.v3.c3 (HIV-1).
Assay [17] addresses HIV-1 Env pseudovirus 928-28 (HIV-1).
For assay [18], the target named is HIV-1 Env pseudovirus 3301.v1.c24 (HIV-1).
In assay [19] the target is HIV-1 Env pseudovirus C3347.c11 (HIV-1).

In the case of 10-1074 (antibody), the IC50, titer in TZM.bl cells in assay [1] is 0.012 mg/L; in assay [2] it was 0.089 mg/L; in assay [3], more than 50 mg/L; in assay [4], more than 50 mg/L. Besides, the IC80, titer in TZM.bl cells in assay [1] is 0.039 mg/L; in [2] it was 0.297 mg/L; in assay [3], more than 50 mg/L; in [4], more than 50 mg/L.

With 10E8 (antibody), the IC50, titer in TZM.bl cells is more than 10 mg/L in [5]; 0.172 mg/L in [1]; 4.75 mg/L in assay [2]; 1.62 mg/L in assay [3]; 0.061 mg/L in [4]. Also, the IC80, titer in TZM.bl cells in assay [5] was more than 10 mg/L; in assay [1], 3.29 mg/L; in assay [2], more than 10 mg/L; in assay [3], 9.06 mg/L; in [4], 0.731 mg/L.

As a reminder, the IC50 is the midpoint of a concentration-inhibition curve. Broadly, the IC80 is the concentration at which the effect reaches the 80% level. With N49P9.1 (antibody), the concentration for half-maximal inhibition (IC50) is more than 50 mg/L in assay [6]; 0.062 mg/L in assay [7]; 0.055 mg/L in assay [8]; 0.17 mg/L in assay [9]; 0.04 mg/L in assay [10]; 0.042 mg/L in assay [11]. Further, the IC50 is 0.076 mg/L in assay [12]; 0.131 mg/L in assay [13]; more than 50 mg/L in assay [14]; 0.067 mg/L in assay [15]; 0.012 mg/L in assay [16]; 0.163 mg/L in [17]. In addition, the IC50 in assay [18] is 0.059 mg/L; in [19] it was 0.029 mg/L. The IC80 is more than 50 mg/L in assay [6]; 0.218 mg/L in assay [7]; 0.725 mg/L in assay [8]; 0.579 mg/L in assay [9]; 0.2 mg/L in assay [10]; 0.15 mg/L in [11]. The IC80 is 0.223 mg/L in [12]; 0.67 mg/L in [13]; more than 50 mg/L in [14]; 0.237 mg/L in assay [15]; 0.041 mg/L in [16]; 0.695 mg/L in [17]. In addition, the IC80 amounted to 0.178 mg/L in assay [18] and 0.083 mg/L in assay [19]. The MPI in assay [6] is 7; in [7], 100; in assay [8], 100; in assay [9] it was 100; in [10], 100; in assay [11], 100. For the same substance, the MPI in [12] was 100; in assay [13] it was 100; in assay [14], 23; in assay [15] it was 100; in [16], 100; in assay [17] it was 100. The MPI in [18] and in [19] was 100 in each case.

In the case of N49P19 (antibody), the IC50 in [6] was more than 50 mg/L; in [7], 0.386 mg/L; in assay [8], 0.579 mg/L; in assay [9] it was 3.23 mg/L; in assay [10], 7 mg/L; in assay [11], 0.54 mg/L. The IC50 in assay [12] is more than 50 mg/L; in assay [13] it was more than 50 mg/L; in assay [14], more than 50 mg/L; in [15] it was 0.653 mg/L; in [16], 0.176 mg/L; in assay [17], 2.73 mg/L. The IC50 came to 0.302 mg/L in assay [18] and 3.94 mg/L in assay [19]. The IC80 in assay [6] was more than 50 mg/L; in [7], 1.36 mg/L; in [8], 2.09 mg/L; in assay [9], 19 mg/L; in [10], more than 50 mg/L; in assay [11], 3.15 mg/L. In addition, the IC80 was more than 50 mg/L in assay [12]; more than 50 mg/L in assay [13]; more than 50 mg/L in assay [14]; 4.55 mg/L in assay [15]; 0.743 mg/L in assay [16]; 9.63 mg/L in assay [17]. Moreover, the IC80 is 1.42 mg/L in assay [18] and 25.7 mg/L in assay [19]. Further, the MPI was 0 in assay [6]; 100 in assay [7]; 99 in assay [8]; 93 in [9]; 80 in assay [10]; 99 in [11]. Also, the MPI in assay [12] amounted to 9; in assay [13] it was 24; in [14], 7; in [15] it was 100; in [16] it was 100; in assay [17] it was 97. Moreover, the MPI was found to be 98 in assay [18] and 87 in [19].

Turning to PG9 (antibody), the IC50, titer in TZM.bl cells in assay [5] was found to be 0.163 mg/L; in assay [1], 0.296 mg/L; in [2], 0.065 mg/L; in assay [3] it was 0.068 mg/L; in [4], 0.004 mg/L. Also, the IC80, titer in TZM.bl cells in [5] worked out at 0.535 mg/L; in assay [1] it was 2.37 mg/L; in [2], 0.304 mg/L; in assay [3], 0.2 mg/L; in assay [4], 0.013 mg/L.

For PG16 (antibody), the IC50, titer in TZM.bl cells in assay [5] stood at 0.016 mg/L; in assay [1], 0.025 mg/L; in [2], 0.023 mg/L; in assay [3], 0.022 mg/L; in assay [4] it was 0.001 mg/L. The IC80, titer in TZM.bl cells in assay [5] was 0.146 mg/L; in [1] it was 0.411 mg/L; in [2] it was 0.218 mg/L; in assay [3] it was 0.143 mg/L; in assay [4] it was 0.003 mg/L.
